According to article PMC10987609, “ATR limits Rad18-mediated PCNA monoubiquitination to preserve replication fork and telomerase-independent telomere stability” (The EMBO Journal, 2024):

Target: T1, ubiquitinated SFB-tagged PCNA purified from HEK293T cells (human | , UniProt P12004 1-261; P0CG48 1-76, ubiquitinated with His-tagged ubiquitin; the paper places Rad18-mediated monoubiquitination at lysine 164)
T1 construct: PCNA, human, full-length cDNA; wild-type ubiquitin (Ub), conjugated to PCNA; the transfected plasmid is probably the N-terminal one; also called ubiquitinated SFB-PCNA; monoubiquitinated PCNA; source: HEK293T stably expressing His-tagged Ub, transfected with SFB-PCNA, treated with HU and ATRi; purified (cobalt resin under denaturing conditions, then streptavidin beads, biotin elution)
Test: pull-down; GST-UBZ4 on glutathione-Sepharose resin incubated with ubiquitinated SFB-tagged PCNA purified from HEK293T cells; NETN buffer, 4 °C, 1 h
Details: both partners purified

B1: GST-SLX4-UBZ4-WT (domain or fragment, human, UniProt Q8IY92 292-361, looked up)
chain: GLFFCQICQKNLSAMNVTRREQHVNRCLDEAEKTLRPSVPQIPECPICGKPFLTLKSRTSHLKQCAVKME
notes: SLX4, human, fragment with the tandem UBZ4 domains, amino acids 292–361; also called GST-UBZ4; source: E. coli, purified (glutathione-Sepharose, used on beads)
  binding result: binds
